The text below walks through data of publication PMC3030355.

Where two headings read alike, the source gives them in different places.

Common to all, as to experiment: EMSA
For orientation: Mobility shift assays separate free from complexed probe on a gel.

The target of data set [1] is T1, RPA-wt (RPA70/RPA32/RPA14 heterotrimer) (human, UniProt P27694;P15927;P35244 1-616;1-270;1-121).
The target in data set [2] is T2, WRN-E84A (exonuclease-deficient) (human, UniProt Q14191 1-1432, E84A).
Data set [3] concerns the target T2, WRN-E84A (exonuclease-deficient). This is another data set of the same source.
Data set [4] addresses T1, RPA-wt (RPA70/RPA32/RPA14 heterotrimer). This is another data set of the same source.
Data set [5] shares this target. The source holds these as a separate data set.

T1 sequence (P27694 whole entry, chain 1 of 3): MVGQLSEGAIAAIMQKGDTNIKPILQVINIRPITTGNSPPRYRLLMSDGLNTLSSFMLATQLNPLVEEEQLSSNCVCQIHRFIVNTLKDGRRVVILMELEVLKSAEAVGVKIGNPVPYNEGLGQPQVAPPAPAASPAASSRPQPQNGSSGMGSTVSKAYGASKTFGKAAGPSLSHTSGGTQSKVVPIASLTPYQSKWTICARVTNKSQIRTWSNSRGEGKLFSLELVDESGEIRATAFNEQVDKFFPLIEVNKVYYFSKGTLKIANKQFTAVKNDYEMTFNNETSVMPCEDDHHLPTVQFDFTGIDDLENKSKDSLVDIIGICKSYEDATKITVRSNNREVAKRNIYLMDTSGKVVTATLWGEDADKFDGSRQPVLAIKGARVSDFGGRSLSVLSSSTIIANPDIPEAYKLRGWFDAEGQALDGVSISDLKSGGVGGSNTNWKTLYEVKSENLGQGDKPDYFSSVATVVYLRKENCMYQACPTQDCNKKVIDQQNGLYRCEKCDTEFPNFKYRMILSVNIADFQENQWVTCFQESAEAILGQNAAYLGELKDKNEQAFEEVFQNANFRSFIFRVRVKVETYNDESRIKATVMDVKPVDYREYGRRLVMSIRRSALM
T1 sequence (P15927 whole entry, chain 2 of 3): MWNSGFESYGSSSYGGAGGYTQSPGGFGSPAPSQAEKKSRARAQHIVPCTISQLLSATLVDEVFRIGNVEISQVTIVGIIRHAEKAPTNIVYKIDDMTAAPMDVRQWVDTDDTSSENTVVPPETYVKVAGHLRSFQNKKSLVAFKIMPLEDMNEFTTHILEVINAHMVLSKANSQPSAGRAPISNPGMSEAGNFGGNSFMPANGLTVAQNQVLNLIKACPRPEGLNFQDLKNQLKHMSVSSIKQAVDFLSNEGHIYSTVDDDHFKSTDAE
T1 sequence (P35244 whole entry, chain 3 of 3): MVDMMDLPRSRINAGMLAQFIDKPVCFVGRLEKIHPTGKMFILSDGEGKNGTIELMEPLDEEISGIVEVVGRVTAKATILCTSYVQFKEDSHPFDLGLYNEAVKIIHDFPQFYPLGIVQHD
T2 sequence (Q14191 whole entry E84A): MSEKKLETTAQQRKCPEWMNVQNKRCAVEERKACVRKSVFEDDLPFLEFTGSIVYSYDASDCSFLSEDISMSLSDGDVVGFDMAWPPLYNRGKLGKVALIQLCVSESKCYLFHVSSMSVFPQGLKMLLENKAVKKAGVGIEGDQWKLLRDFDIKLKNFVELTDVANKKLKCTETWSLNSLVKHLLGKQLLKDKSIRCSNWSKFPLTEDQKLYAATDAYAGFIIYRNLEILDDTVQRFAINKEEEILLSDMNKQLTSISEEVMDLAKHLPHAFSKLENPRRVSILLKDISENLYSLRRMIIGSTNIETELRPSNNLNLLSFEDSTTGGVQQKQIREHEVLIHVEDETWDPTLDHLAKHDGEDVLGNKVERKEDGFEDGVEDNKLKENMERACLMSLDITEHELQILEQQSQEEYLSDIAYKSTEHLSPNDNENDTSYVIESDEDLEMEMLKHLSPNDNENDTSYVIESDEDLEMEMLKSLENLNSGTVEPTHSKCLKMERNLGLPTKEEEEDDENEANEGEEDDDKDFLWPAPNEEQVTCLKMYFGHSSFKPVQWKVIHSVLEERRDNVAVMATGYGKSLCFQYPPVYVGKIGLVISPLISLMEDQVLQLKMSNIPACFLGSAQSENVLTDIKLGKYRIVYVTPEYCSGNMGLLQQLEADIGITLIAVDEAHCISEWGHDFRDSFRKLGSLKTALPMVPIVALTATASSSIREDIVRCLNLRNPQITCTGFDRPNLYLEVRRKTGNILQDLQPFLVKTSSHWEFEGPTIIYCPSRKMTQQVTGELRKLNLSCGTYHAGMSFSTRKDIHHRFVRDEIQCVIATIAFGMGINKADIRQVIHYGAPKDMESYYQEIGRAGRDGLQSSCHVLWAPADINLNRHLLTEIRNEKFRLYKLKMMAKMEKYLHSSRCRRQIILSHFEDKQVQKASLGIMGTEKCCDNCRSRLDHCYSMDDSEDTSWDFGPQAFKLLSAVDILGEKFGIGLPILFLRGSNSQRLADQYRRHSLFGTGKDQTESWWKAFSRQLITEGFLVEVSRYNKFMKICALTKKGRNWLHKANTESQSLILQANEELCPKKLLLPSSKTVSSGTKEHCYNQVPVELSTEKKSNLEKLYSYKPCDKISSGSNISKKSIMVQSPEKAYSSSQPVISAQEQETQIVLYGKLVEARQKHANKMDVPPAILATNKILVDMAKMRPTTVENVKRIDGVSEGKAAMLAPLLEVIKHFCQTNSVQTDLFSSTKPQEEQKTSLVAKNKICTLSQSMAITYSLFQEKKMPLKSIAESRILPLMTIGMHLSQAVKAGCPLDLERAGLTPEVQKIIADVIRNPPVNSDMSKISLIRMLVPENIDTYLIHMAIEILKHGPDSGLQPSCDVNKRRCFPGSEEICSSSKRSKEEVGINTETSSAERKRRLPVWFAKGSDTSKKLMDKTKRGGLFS

B1: model replication fork, 32-nt leading gap (mixed)
DNA 1: CGTGACTTGATGTTAACCCTAACCCTAAGATATCGCGTTAAGTGAGTGTGAGGATACATGTAGGCAATTGCCACGTGTCTATCAGCTGAAGTTGTTCGCGACGTGCGATCGTCGCTGCGACG
DNA 2: CGTCGCAGCGACGATCGCACGTCGCGAACAACTTCAGCTGATAGACACGTGGCAATTGCCTACATGTATCCTCACACTCTGAATACGCGATATCTTAGGGTTAGGGTTAACATCAAGTCACG
DNA 3: CGTCGCAGCGACGATCGCACGTCGCGAACAACTTCAGCTGATAGACACGTGG
DNA 4: TCAGAGTGTGAGGATACATGTAGGCAATTGCCACGTGTCTATCAGCTGAAGTTGTTCGCGACGTGCGATCGTCGCTGCGACG
As to B1, the binding result in data set [1] and in data set [2] was “binds” in each case.

B2: gapped duplex, 32-nt gap (mixed)
DNA 1: B1 DNA 1
DNA 2: B1 DNA 3
DNA 3: ACGCGATATCTTAGGGTTAGGGTTAACATCAAGTCACG
As to B2, the binding result in data set [3] and in data set [4] was “binds” each time.
Turning to TAAGTGAGTGTGAGGATACATGTAGGCAATTG (ssDNA) [ss32], the binding result in data set [5] is recorded as “binds”.
